Test [1] concerns the target 26S proteasome (mouse (endogenous in striatum and hippocampus tissue)) (UniProt P62196). The test can be described thus: co-IP.
Test [2] shares this target. The test is described as follows: co-IP. This is another data set of the same source.

Where two headings read alike, the source gives them in different places.

UniProt P62196, sequence (P62196 whole entry, looked up): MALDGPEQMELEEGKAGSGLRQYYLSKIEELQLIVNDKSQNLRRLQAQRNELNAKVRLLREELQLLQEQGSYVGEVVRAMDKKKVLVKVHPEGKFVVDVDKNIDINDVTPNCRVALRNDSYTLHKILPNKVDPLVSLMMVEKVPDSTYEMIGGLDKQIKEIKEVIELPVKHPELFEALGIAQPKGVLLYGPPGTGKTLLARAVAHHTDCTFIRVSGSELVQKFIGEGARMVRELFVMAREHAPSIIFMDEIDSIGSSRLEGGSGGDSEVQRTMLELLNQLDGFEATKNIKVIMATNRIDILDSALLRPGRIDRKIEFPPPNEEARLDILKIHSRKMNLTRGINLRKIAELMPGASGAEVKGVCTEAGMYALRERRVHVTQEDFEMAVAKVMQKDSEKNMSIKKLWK

As for “gamma-enolase (ENO2) (from UniProt P17183 1-434) (natural protein)”, the pixel total of the Eno2 band amounted to 12400 pixels in test [1] and 9430 pixels in test [2].

Values taken from publication PMC8617079.
